Patent publication US20250215083A1 (JIANGSU HENGRUI PHARMACEUTICALS, published 2025)
No end group written: not given here.

T1: E2 peptide of human GPRC5D (human, also: biotinylated, site not given here, made with and without intramolecular disulfide bonds)
T1 peptide: NQQTAPVRYC

T2: E3 peptide of human GPRC5D (human, biotinylated; made with and without intramolecular disulfide bonds)
T2 peptide: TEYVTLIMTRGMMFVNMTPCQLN

T3: E4 peptide of human GPRC5D (human, also: biotinylated, site not given here, made with and without intramolecular disulfide bonds)
T3 peptide: RGNPQFQRQPQWDDC

T4: human GIPR (human, UniProt P48546 22-466)
T4 construct: on CHOK1-human GIPR cells
T4 sequence: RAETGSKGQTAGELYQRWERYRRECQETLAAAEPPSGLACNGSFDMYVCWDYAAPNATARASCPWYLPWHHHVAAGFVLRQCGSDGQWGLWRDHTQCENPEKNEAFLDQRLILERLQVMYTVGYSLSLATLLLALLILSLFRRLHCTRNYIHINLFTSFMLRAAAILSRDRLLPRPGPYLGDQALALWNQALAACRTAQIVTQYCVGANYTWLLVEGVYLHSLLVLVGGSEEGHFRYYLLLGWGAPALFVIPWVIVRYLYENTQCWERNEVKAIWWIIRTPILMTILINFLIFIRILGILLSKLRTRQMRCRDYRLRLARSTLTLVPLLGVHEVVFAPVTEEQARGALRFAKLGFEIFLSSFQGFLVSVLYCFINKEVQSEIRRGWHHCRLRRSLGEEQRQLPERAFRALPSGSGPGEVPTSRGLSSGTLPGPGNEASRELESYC

T5: N-terminal peptide of human GPRC5D (human, biotinylated; made with and without intramolecular disulfide bonds)
T5 construct: synthesized by GenScript; captured on streptavidin; also called amino-terminal peptide
T5 peptide: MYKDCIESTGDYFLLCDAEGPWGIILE

B1: F2-0G4S-1 (bispecific antibody)
heavy 1: not shown
light 1: DVVMTQTPLSLSVTPGQPASISCRSSQSLVHSQGNTYLYWYLQKPGQSPKLLIYKVSNRFSGVPDRFSGSGSGTDFTLKISRVEAEDVGVYYCSQSTHVPPLTFGQGTKLEIKRTVAAPSVFIFPPSDEQLKSGTASVVCLLNNFYPREAKVQWKVDNALQSGNSQESVTEQDSKDSTYSLSSTLTLSKADYEKHKVYACEVTHQGLSSPVTKSFNRGEC
heavy 2: not shown
light 2: not shown
notes: formula 2-0G4S
B2: F4-0G4S-1 (bispecific antibody)
heavy 1: not shown
light 1: not shown
heavy 2: EVQLVQSGAEVKKPGASVKVSCKVSGYTFTDYPIHWMRQAPGQGLEWMGYVFPRDGSTKYNEKFRVRVTWTADKSTSTVYMELSSLRSEDTAVYYCSRELTAYWGQGTTVTVSSASTKGPSVFPLAPSSKSTSGGTAALGCLVKDYFPEPVTVSWNSGALTSGVHTFPAVLQSSGLYSLSSVVTVPSSSLGTQTYICNVNHKPSNTKVDKKVEPKSCDKTHTCPPCPAPEAAGGPSVFLFPPKPKDTLMISRTPEVTCVVVDVSHEDPEVKFNWYVDGVEVHNAKTKPREEQYNSTYRVVSVLTVLHQDWLNGKEYKCKVSNKALPAPIEKTISKAKGQPREPQVCTLPPSRDELTKNQVSLSCAVKGFYPSDIAVEWESNGQPENNYKTTPPVLDSDGSFFLVSKLTVDKSRWQQGNVFSCSVMHEALHNHYTQKSLSLSPGK
light 2: DVVLTQSPLSLPVTLGQPASISCKSSQSLLHSSGKTYLNWLLQRPGQSPRRLIYLVSKLDSGVPDRFSGSGSGTDFTLKISRVEAEDVGVYYCAQGTHFPRTFGGGTKVEIKRTVAAPSVFIFPPSDEQLKSGTASVVCLLNNFYPREAKVQWKVDNALQSGNSQESVTEQDSKDSTYSLSSTLTLSKADYEKHKVYACEVTHQGLSSPVTKSFNRGEC
notes: formula 4-0G4S
B3: F2-1 (bispecific antibody)
heavy 1: not shown
light 1: B1 light 1
heavy 2: not shown
light 2: not shown
notes: formula 2
B4: F4-6 (bispecific antibody)
heavy 1: not shown
light 1: not shown
heavy 2: B2 heavy 2
light 2: B2 light 2
notes: formula 4

Columns and labels:
[1] = molecular target: T1, E2 peptide of human GPRC5D; assay: peptide ELISA; note: - indicates no detectable binding
Description: (§1) To determine the epitope of GPRC5D to which the GPRC5D/CD3 bispecific antibodies of the present disclosure bind, 4 extracellular domain peptides of human GPRC5D were synthesized, including an amino-terminal peptide (N-terminal peptide), an E2 peptide, an E3 peptide, and an E4 peptide (synthesized by GenScript). The peptides were biotinylated and made into two forms: one lacked intramolecular disulfide bonds and the other included intramolecular disulfide bonds. An Elisa plate (Corning 3590) was coated with streptavidin (sigma, SA101), left to stand at 37° C. for 2 h, and then washed. The non-specific binding sites were blocked with PBS containing 5% skim milk, and the plate was left to stand at 37° C. for 2 h and then washed. The peptides, diluted in PBS containing 1% BSA, were added at 100 μL/well, and the plate was left to stand at 37° C. for 1 h and then washed. Subsequently, the GPRC5D/CD3 antibodies, diluted in PBS containing 1% BSA to 0.003 nM-300 nM, were added at 100 μL/well, and the plate was left to stand at 37° C. for 1 h and then washed. […] TMB (KPL, 5120-0077) was added at 100 μL/well. After 5 min of color development, 1 M H₂SO₄ was added to stop the reaction, and the OD₄₅₀ was measured.

[2] = molecular target: T2, E3 peptide of human GPRC5D; assay: as above
Description: as §1

[3] = molecular target: T3, E4 peptide of human GPRC5D; assay: as above
Description: as §1

human CCR8 = molecular target: T6, human CCR8 (human, UniProt P51685 1-355); assay: FACS, CHOK1-human CCR8 cells
T6 construct: on CHOK1-human CCR8 cells
Description: (§2) To determine whether the GPRC5D/CD3 bispecific antibodies of the present disclosure cross-bind to the GPCRA and GPCRB family members, a flow cytometry assay was used in this test example to measure the capacity of the GPRC5D/CD3 bispecific antibodies to bind to CHOK1-human CCR8 cells expressing CCR8 (the GPCR A family) (constructed with reference to Example 2) and CHOK1-human GIPR cells expressing human GIPR (the GPCR B family) (constructed with reference to Example 2). The specific procedure was as follows: The cells described above were cultured in DMEF/12K culture medium containing 10% FBS, incubated in a 37° C., 5% CO₂ incubator for 2 days, and added to a cell plate at 1×10⁵ cells/well. The plate was centrifuged at 300 g for 5 min and washed once with 1% BSA. The antibodies were serially diluted to 8 concentrations and added to the cell plate at 100 μL/well. The plate was incubated at 4° C. for 1 h and washed once with 1% BSA. […] The plate was washed three times with 1% BSA, PBS was added at 100 μL/well, and plate reading was performed.

human GIPR = molecular target: T4, human GIPR; assay: FACS, CHOK1-human GIPR cells
Description: as §2

[4] = molecular target: T5, N-terminal peptide of human GPRC5D; assay: ELISA, biotinylated peptide on streptavidin
Description: as §1

human GPRC5D = human GPRC5D (human, UniProt Q9NZD1 1-345); assay: cell-based or functional assay

Binder	binding result [1]	binding result [2]	binding result [3]	binding result (human CCR8)	binding result (human GIPR)	EC50 [4] [pM]	EC50 ratio (relative to JNJ-64407564), cytotoxic activity against NCI-H929 (human GPRC5D)	Lysis rate %, cytotoxic activity against NCI-H929 (human GPRC5D) [%]
B1	no binding (tested: 0.003 nM-300 nM)	no binding (tested: 0.003 nM-300 nM)	no binding (tested: 0.003 nM-300 nM)	no binding	no binding	392	0.57	91.5
B2	no binding (tested: 0.003 nM-300 nM)	no binding (tested: 0.003 nM-300 nM)	no binding (tested: 0.003 nM-300 nM)	no binding	no binding	597	0.09	136
B3				no binding	no binding			
B4				no binding	no binding			
